Experimental data taken from US20240390512A1, “METHODS OF TREATING CHEMOTHERAPY-RESISTANT CANCER WITH AN ANTIBODY-DRUG CONJUGATE” (DAIICHI SANKYO COMPANY, LIMITED, priority 2021, published 2024).

T1: human CDH6 (full-length and EC domain deletion mutants) (Homo sapiens, UniProt P55285)
T1 construct: each one of the five EC domains could be deleted from full-length human CDH6; 3xFLAG (deletion mutants only, from the vector p3×FLAG-CMV-9); expressed in transfected cells; host or cells: 293α cells
T1 sequence (P55285 54-790): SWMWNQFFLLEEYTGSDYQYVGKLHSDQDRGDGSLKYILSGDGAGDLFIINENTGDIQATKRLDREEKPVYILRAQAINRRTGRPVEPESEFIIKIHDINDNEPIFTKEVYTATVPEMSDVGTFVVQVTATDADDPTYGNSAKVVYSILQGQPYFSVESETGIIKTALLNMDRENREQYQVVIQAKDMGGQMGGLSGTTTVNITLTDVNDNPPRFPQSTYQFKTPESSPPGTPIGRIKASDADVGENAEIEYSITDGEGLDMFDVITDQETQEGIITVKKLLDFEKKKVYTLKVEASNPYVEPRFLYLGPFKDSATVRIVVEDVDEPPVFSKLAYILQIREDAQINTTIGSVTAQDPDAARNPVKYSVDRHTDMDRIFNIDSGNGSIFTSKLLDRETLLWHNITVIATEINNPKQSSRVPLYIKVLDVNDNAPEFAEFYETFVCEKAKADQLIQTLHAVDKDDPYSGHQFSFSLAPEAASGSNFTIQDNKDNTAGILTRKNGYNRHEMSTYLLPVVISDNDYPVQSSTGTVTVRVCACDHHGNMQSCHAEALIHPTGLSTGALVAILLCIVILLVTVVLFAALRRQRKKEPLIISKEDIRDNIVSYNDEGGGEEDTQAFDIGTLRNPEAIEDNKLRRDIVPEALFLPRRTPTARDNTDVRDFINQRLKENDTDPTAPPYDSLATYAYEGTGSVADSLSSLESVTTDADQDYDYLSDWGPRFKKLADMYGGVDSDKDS

T2: human CDH6 (full-length and EC domain deletion mutants) (Homo sapiens, UniProt P55285, DEL269-383)
T2 construct: each one of the five EC domains could be deleted from full-length human CDH6; 3xFLAG (deletion mutants only, from the vector p3×FLAG-CMV-9); expressed in transfected cells; host or cells: 293α cells
T2 sequence (P55285 with tags, fused parts or gaps DEL269-383): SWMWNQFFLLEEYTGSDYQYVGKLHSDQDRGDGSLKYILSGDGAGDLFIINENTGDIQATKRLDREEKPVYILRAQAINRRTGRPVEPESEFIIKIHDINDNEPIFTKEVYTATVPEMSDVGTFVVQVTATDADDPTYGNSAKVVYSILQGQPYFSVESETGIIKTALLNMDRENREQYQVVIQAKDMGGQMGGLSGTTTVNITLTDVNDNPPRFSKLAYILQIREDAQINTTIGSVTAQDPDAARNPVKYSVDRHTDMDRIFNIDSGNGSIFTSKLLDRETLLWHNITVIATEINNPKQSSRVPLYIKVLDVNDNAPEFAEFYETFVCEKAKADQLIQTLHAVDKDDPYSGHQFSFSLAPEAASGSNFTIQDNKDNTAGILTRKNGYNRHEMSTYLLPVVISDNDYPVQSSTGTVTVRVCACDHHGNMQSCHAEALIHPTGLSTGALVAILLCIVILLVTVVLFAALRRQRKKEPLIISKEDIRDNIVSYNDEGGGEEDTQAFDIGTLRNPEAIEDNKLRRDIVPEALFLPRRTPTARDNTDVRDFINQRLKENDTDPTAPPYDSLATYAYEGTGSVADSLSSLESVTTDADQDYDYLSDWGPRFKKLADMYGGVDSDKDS


How the values were obtained:
[1] = molecular target: T1, human CDH6 (full-length and EC domain deletion mutants); experiment: Epitope analysis of rat anti-CDH6 antibody by flow cytometry using domain deletion mutants; assay type: binding; details: for binding to full-length hCDH6: flow cytometry, transfected 293α cells, antibody 20 nM; for epitope on hCDH6: from domain deletion mutant binding
From the text: (§1) The full-length extracellular region of human CDH6 has five extracellular domains, EC1 (SEQ ID NO: 2), EC2 (SEQ ID NO: 3), EC3 (SEQ ID NO: 4), EC4 (SEQ ID NO: 5), and EC5 (SEQ ID NO: 6). A gene to be expressed such that each one of the five EC domains could be deleted from full-length human CDH6 was synthesized by GeneArt, and incorporated into p3×FLAG-CMV-9 vectors for mammalian expression (Sigma-Aldrich Co. LLC) according to a method known to a person skilled in the art in order to produce an expression vector for each domain deletion mutant lacking any one of EC1 to EC5.
(§2) The epitopes to which the rat anti-human CDH6 antibodies bound were identified by flow cytometry analysis using a 293α cell line transfected with each EC domain deletion vector. Using Lipofectamine 2000 (Thermo Fisher Scientific Inc.), each domain deletion mutant expression vector produced in Reference Example 2)-2-1, or pcDNA3.1-hCDH6 for the expression of full-length human CDH6 was transiently introduced into a 293α cell line, which was a cell line derived from HEK293 cells by stable transfection with integrin αv and integrin […] expression vectors. The cells were cultured overnight under conditions of 37° C. and 5% CO2, and thereafter, a cell suspension was prepared. The suspension of the transfected 293α cells was centrifuged, and a supernatant was then removed. Thereafter, the cells were suspended by the addition of each of the 4 rat anti-CDH6 monoclonal antibodies (clone Nos: rG019, rG055, rG056 and rG061), which had been prepared in Reference Example 1)-7, or rat IgG control (R&D Systems, Inc.) (final concentration: 20 nM). The cells were left standing at 4° C. for 1 hour. The cells were washed twice with PBS supplemented with 5% FBS, and then suspended by the addition of Anti-Rat IgG (whole molecule)-FITC antibody produced in rabbit (Sigma-Aldrich Co. LLC) that had been 50-fold diluted with PBS supplemented with 5% FBS. The cells were left standing at 4° C. for 1 hour. The cells were washed twice with PBS supplemented with 5% FBS, followed by detection using a flow cytometer (Canto II; BD Biosciences). The data was analyzed using FlowJo (Tree Star, Inc.). In the histograms of FIGS. 2-1 to 2-6, the abscissa depicts FITC fluorescence intensity indicating the amount of the antibody bound, and the ordinate depicts cell count. […] Fluorescence intensity is enhanced when the antibody binds to full-length hCDH6 or each EC domain deletion mutant on the surface of cells. The rat IgG control binds to none of the transfected cells.

[2] = molecular target: T2, human CDH6 (full-length and EC domain deletion mutants); experiment: as above; assay type: binding; details: flow cytometry; transfected 293α cells; antibody 20 nM
From the text: as §1, §2

Row | binding to full-length hCDH6 [1] | epitope on hCDH6 [1] | binding to EC3 deletion mutant [2] | Molecule
1 | bind | EC3 | do not bind | rG019: rat anti-human CDH6 monoclonal antibody produced by hybridoma rG019; variable regions SEQ ID NO: 10 and 15 (antibody, listed as Rattus norvegicus, V domains shown) VL: DIQMTQSPSLLSASVGDRVTLNCKASQNIYKNLAWYQQKLGEGPKLLIYDANTLQTGIPSRFSGSGSGSDFTLTISSLQPEDVATYFCQQYYSGWAFGGVTNLELKRA VH: QVQLQQSGAELVKPGSSVKISCKASGYTFTRNFMHWIKQQPGNGLEWIGWIYCGDGETEYNQKFNGKATLTADRSSSTAYMELSRLTSEDSAVYFCARGVYGGFAGGYFDFWGQGVMVTVSS
2 | bind | EC3 | do not bind | rG056: rat anti-human CDH6 monoclonal antibody produced by hybridoma rG056; variable regions SEQ ID NO: 30 and 35 (antibody, listed as Rattus norvegicus, V domains shown) VL: DVQMTQSPSSLAASPGESVSISCRATKSIGIYLAWYQQKPGKTFKLLIYSGSTLQSGTPSRFSGSGSGTDFTLTIRSLEPEDFGLYFCQQFYENPFTFGSGTKLEIRRA VH: EVQLQESGPGLVKPSQSLSLTCSVTDYSITTYFWGWIRKFPGNKMEWMGYMSYRGGTSYNPSLKSRISITRDTSKNQFFLQLNSVTTEDTATYYCARCPNYGGHSLVFDYWGQGVMVTVSS
3 | bind | EC3 | do not bind | rG055: rat anti-human CDH6 monoclonal antibody produced by hybridoma rG055; variable regions SEQ ID NO: 20 and 25 (antibody, listed as Rattus norvegicus, V domains shown) VL: DVQMTHSPSYLAASPGESVSISCKTSKNISNYLVWYQQKPGEAYKLLIYSGSTLQSGTPSRFSGSGSGTDFTLTIRSLEPEDFGLYFCQQYYEKPFTFGSGTKLEIKRA VH: EVQLQESGPGLVRPSQSLSLSCSVTDYSITSNYWGWIRRFPGNKMEWMGYITYSGYTSYNPSLQSRISITRDTSKNQFFLQLNSVTAEDTATYYCARSINHGGYSYVVDAWGPGASVTVSS
4 | bind | EC3 | do not bind | rG061: rat anti-human CDH6 monoclonal antibody produced by hybridoma rG061; variable regions SEQ ID NO: 40 and 45 (antibody, listed as Rattus norvegicus, V domains shown) VL: DVQMTQSPSYLAASPGESVSISCKATKSISNYLAWYQQKPGEAYKVLIYSGSTLQSGTPSRFSGSGSGTDFTLTIRSLEPEDFGLYSCQQYYEKPLTFGSGTKLEIKRA VH: EVQLQESGPGLVKPSQSLSLTCSVTGYSITTYYWGWIRKFPGNKMEWMGYISYSGRTSYNPSLKSRMSITRDASKNQFFLQLNSVTTDDTATYYCARSPINHGGYWYFDFWGPGTMVTVSS
